Data: PMC3830488, “WRKY76 is a rice transcriptional repressor playing opposite roles in blast disease resistance and cold stress tolerance”

T1: MBP-OsWRKY76 (Oryza sativa (rice), UniProt Q6EPZ2 1-327)
T1 sequence: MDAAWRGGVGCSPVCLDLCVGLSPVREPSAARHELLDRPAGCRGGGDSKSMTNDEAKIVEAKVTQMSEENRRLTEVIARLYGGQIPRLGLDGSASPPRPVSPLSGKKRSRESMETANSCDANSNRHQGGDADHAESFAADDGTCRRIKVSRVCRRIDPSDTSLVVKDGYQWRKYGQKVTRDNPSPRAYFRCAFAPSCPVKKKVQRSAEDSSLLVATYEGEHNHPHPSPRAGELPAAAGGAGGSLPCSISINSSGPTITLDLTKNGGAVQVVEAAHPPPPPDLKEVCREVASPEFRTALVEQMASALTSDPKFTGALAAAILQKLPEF


Assays:
[1] = target: T1, MBP-OsWRKY76; assay: EMSA; DIG Gel Shift Kit 2nd generation (Roche); buffer, salt, pH and temperature not stated; conditions: protein: recombinant; tags: MBP (N-terminal, pMALc2x); label: DIG
[2] = target: T1, MBP-OsWRKY76; assay: competition; excess unlabelled mWB vs DIG-WB; DIG Gel Shift Kit 2nd generation (Roche); buffer, salt, pH and temperature not stated; conditions: protein: recombinant; tags: MBP (N-terminal, pMALc2x)
[3] = target: T1, MBP-OsWRKY76; assay: competition; excess unlabelled WB vs DIG-WB; DIG Gel Shift Kit 2nd generation (Roche); buffer, salt, pH and temperature not stated; conditions: protein: recombinant; tags: MBP (N-terminal, pMALc2x)

Row | Binder | binding result [1] | other results
1 | mWB (mutated W-box probe) (dsDNA) DNA 1: AACTTTGAACAATCTTTCAAGTA DNA 2: TACTTGAAAGATTGTTCAAAGTT | no binding | 
2 | mWB unlabelled competitor (dsDNA) DNA 1: AACTTTGAACAATCTTTCAAGTA DNA 2: TACTTGAAAGATTGTTCAAAGTT |  | binding result [2]: no binding
3 | WB unlabelled competitor (dsDNA) DNA 1: AACTTTGACCAATCTTTCAAGTA DNA 2: TACTTGAAAGATTGGTCAAAGTT |  | binding result [3]: binds
4 | WB (W-box probe) (dsDNA) DNA 1: AACTTTGACCAATCTTTCAAGTA DNA 2: TACTTGAAAGATTGGTCAAAGTT | binds | 
